Test results reported in patent US7144731B2, “SCF antibody compositions and methods of using the same” (Amgen Inc., priority 1989, dated 2006).

Assays:
[1] = biological target: T1, SCF receptor (OCIM1 plasma membrane) (Homo sapiens, UniProt P10721); test: SCF radioreceptor assay; type: binding; details: E. coli derived
T1 construct: endogenous in cells; host or cells: OCIM1 human erythroleukemic cells, plasma membrane preparation
Method: OCIM1 cells, [Papayannopoulou et al., Blood 72:1029–1038 (1988)] are a human erythroleukemic cell line expressing many human SCF receptors per cell. These cells are grown in Iscove's Modified Dulbecco's Medium, 10% FBS, and 1× glutamine and passaged 3 times a week to 1×10^5 cells/ml.
Preparation of the OCIM1 plasma membrane is as follows with all steps performed on ice.
First, 40 T175 flasks of cells were grown-up in OCIM1 culture medium, for a total of 1.9×10^9 […]. The conditioned medium and 1 mM Phenyl Methyl Sulfonyl Fluoride (PMSF) protease inhibitor, was spun down in 8×250 ml tubes at 1000 rpm for 10 minutes at 4° C. Cells were washed with PBS and repelleted in 4×50 ml centrifuge tubes at 1000 rpm for 10 minutes at 4° C. Cells were resuspended in 20 ml ice cold PBS with glucose sodium pyruvate (Gibco Cat #310-4287). The 20 ml cell solution was put into a pre-pressurized, pre-chilled (4° C.) “cell bomb” designed to lyse the cells. Cells were pressurized at 400–650 PSI for 10 minutes to establish equilibrium. When the pressure is released cell lysis occurs.
At this point the cells were checked for the percentage of cell lysis. 90% lysis was common. The cell suspension was resuspended in 80 mls sucrose buffer (0.25M sucrose, 10 mM Tris, 1 mM EDTA in double distilled (dd) H2O, filtered through a 0.45 u filter, pH 7.0) and divided between two 40 ml screwcap tubes. Tubes were spun at 5900 RPM for 10 minutes in a Beckman J2-21 centrifuge, JA-20 rotor at 4° C. The supernatants were saved and spun one more time as above to further remove any unwanted material. Supernatants were saved and distributed equally into 2 nalgene 40 ml centrifuge tubes. These supernatants were centrifuged at 16,000 RPM 4° C. for 30 min. in J2-21 centrifuge, JA-20 rotor. These supernatants were discarded being careful to save pellets. Each pellet was resuspended in sucrose buffer so there were 20 mls per tube in 4×36 ml plastic ultracentrifuge tubes. Using a 20 ml syringe and a large trochar, the solution was carefully underlayered in each tube with ice cold 36% sucrose solution (36.1 g sucrose/100 mls ddH2O), bringing the level of the liquid to within 2 mm of the top of the tube. Without disturbing the interface, each tube was carefully placed into each of […] titanium ultracentrifuge tubes. Tubes were centrifuged at 27,000 RPM, 4° C. for 75 minutes in an ultracentrifuge. These tubes were carefully removed from the rotor and from titanium buckets, placed in a rack with the 36% sucrose interface visible. The membraneous material at the interface was collected with a pasteur pipet and transfered into 2 clean nalgene 40 ml centrifuge tubes. Volume was brought up to 40 mls with ice cold sucrose buffer. Tubes were balanced and centrifuged as before at 5900 RPM in J2-21 centrifuge. […]

UT-7 cells = test: UT-7 ^3H-thymidine uptake assay; type: cell-based, human; details: E. coli derived
Method: UT-7 cells are a human megakaryocyte, huGM-CSF responsive cell line obtained from John Adamson, New York Blood Center, New York, N.Y. UT-7 cells were cultured in Iscove's Modified Dulbecco's Medium, 10% FBS, 1× glutamine, 5 \g/ml huGM-CSF. Cells are passaged twice a week at 1×10^5 cells/ml.
Cells were washed twice in phosphate buffered saline (PBS) and resuspended in RPMI medium with 4% FBS and glutamine penicillin streptomycin (GPS) (Irvine Scientific Cat No. 9316 used at 1% volume per volume) at 4×10^4 cells/ml before use. Human SCF along with specific samples were added to 4000 cells/well in 96 well plates and were cultured for 72 hrs. 0.5 uCi/well of ^3H-Thymidine was then added to each plate, plates were harvested and counted 4 hours later.

normal baboons = test: In vivo activity in normal primates
[2] = system: peripheral blood mononuclear cells of normal donors; test: BFU-E assay, peripheral blood of normal donors; type: cell-based; details: Homo sapiens, PBMC; in the presence of the three concentrations of HuSCF (10, 100, 1000 ng/ml); read-out: IC50 (fifty percent inhibitory concentration) of zidovudine for BFU-E
Method: Peripheral blood mononuclear cells were isolated from leukopaks and peripheral blood using ficoll-hypaque sedimentation followed by extensive washing with Hank's Balance Salt Solution (HBSS). Blood cells were enumerated and viability ascertained by trypan blue dye exclusion.
Assays for BFU-E were performed in a standard protocol using normal human bone marrow as the control. Heparinized blood was diluted with an equal volume of HBSS (GIBCO, Grand Island, N.Y.), layered over Ficol-Paque (Pharmacia, Piscataway, N.J.) and centrifuged at 400 g for 30 minutes at room temperature. Light density cells (s.g. <1.077) were collected and washed twice in HBSS. Cells were resuspended in Iscove's Medium with 10% Fetal Bovine Serum (GIBCO, Grand Island, N.Y.) at a concentration of 1×10^7/ml. […] Erythroid burst colonies were scored after 14 days of culture in a humidified atmosphere containing 5% CO2. Each assay was done in duplicate and colonies with >50 cells present on day 14 with hemoglobinization were scored as BFU-E.
The 50% inhibitory concentration for zidovudine was calculated by expressing the mean of four determinations of BFU-E for each level of zidovudine and huSCF as a percentage of control (no added zidovudine). […] The 50% inhibitory concentration was calculated by interpolation and the value used as the exponent for the base of 10. […]

[3] = system: bone marrow from patients with DBA; test: BFU-E culture of Diamond-Blackfan anemia marrow; type: cell-based, human
Source text: (§1) Another bone marrow failure disorder which is responsive to SCF is Diamond-Blackfan anemia (DBA) or congenital pure red cell aplasia. This congenital abnormality results in a selective defect in the production of red blood cells and often results in chronic transfusion dependency. […] This pattern of response reflects an intrinsic defect in the receptor for SCF (c-kit) on the progenitor cell. In either case (abnormal production of SCF by the microenvironment or decreased stimulation of the hematopoietic progenitor by SCF) SCF overcomes the block to hematopoiesis which characterizes bone marrow failure syndromes such as DBA.

control marrow = test: BFU-E culture of control marrow; type: cell-based, human; details: with EPO
Source text: as §1

[4] = system: dog with cyclic neutropenia; test: Canine cyclic neutropenia; type: in vivo; details: rcanineSCF 100 mg/kg/day s.c. over several weeks
Method: Cyclic neutropenia, in particular, is a defect in the regulation of stem cell division since other lineages (e.g., platelet, erythrocyte and monocyte) are also effected. […] A typical dog with cyclic neutropenia was treated with rcanineSCF (recombinant canine SCF) at […] subcutaneously over several weeks. […] Thus, SCF is useful in treating a variety of bone marrow failure syndromes, either alone or in combination with other hematopoietic growth factors.

Lewis rats = test: SCF and G-CSF in Lewis rats; type: in vivo, rat
Method: Quantitative peripheral blood and bone marrow differentials were performed at various timepoints as previously described [Hulse, Acta Haematol. […] J. Physiol. […] Histologic examination of the spleen was performed with Bouin's-fixed paraffin-embedded sections stained with hematoxylin-and-eosin as well as by the Giemsa method. The numbers of normoblasts, megakaryocytes, and mast cells per 400× or 1000× high power field (HPF) in the spleen was quantitated by counting the number of each cell type in randomly selected fields of the red pulp. Increases in circulating numbers of neutrophils over extended time periods were when so stated calculated by planimetry as previously described. […] Data is expressed as the mean plus-or-minus one standard deviation and statistical analysis is by the unpaired t-test.

normal human bone marrow = test: Human CFU-GM assay; type: cell-based; details: average of triplicate cultures; SCF = COS-1 supernatant 4 days after transfection
human bone marrow = test: Human bone marrow colony assay; type: cell-based; details: agar colony assay, factors alone or combined
Method: The cDNA of human SCF corresponding to amino acids 1–162 obtained by PCR reactions outlined in Example 3D, was expressed in COS-1 cells as described for the rat SCF in Example 4. COS-1 supernatants were assayed on human bone marrow as well as in the murine HPP-CFC and MC/9 assays. […] The culture conditions of the assay were as follows: human bone marrow from healthy volunteers was centrifuged over Ficoll-Hypaque gradients (Pharmacia) and cultured in 2.1% methyl cellulose, 30% fetal calf serum, 6×10^−5 M 2-mercaptoethanol, 2 mM glutamine, ISCOVE'S medium (GIBCO), 20 U/ml EPO, and 1×10^5 cells/ml for 14 days in a humidified atmosphere containing 7% O2, 10% CO2, and 83% N2. Only those colonies of 0.2 mm in size or larger are indicated.
Recombinant human SCF was tested in agar colony assays on human bone marrow in combination with other growth factors as described above.

[5] = 6 hours after a single injection

Human SCF^1-165: recombinant human [Met^−1]SCF^1-165 expressed in E. coli
competition with binding of human [^125I][Met^−1]SCF^1-164 [1]: compete equally well | stimulation of UT-7 proliferation, comparison (UT-7 cells): equally active | in vivo biological activity in primates compared with human SCF^1-164 (normal baboons): same in vivo biological activity

Cc1cn([C@H]2C[C@H](N=[N+]=[N-])[C@@H](CO)O2)c(=O)[nH]c1=O [zidovudine]
IC50 [2]: 2.65 to 1380 µM

SCF: stem cell factor added to DBA and control marrow cultures; form not specified
increase in the frequency of BFU-E ([3]; majority of patients, ≤10 ng/ml SCF, with EPO): approximately 3 fold | SCF concentration giving an increase in the frequency of BFU-E ([3]; other group of patients with DBA): greater than or equal to 50 ng/ml | increase in frequency of BFU-E (control marrow): 1.5 fold

B1: G-CSF: human granulocyte colony-stimulating factor (protein, UniProt P09919 31-207, looked up)
Granulocyte …: TPLGPASSLPQSFLLKCLEQVRKIQGDGAALQEKLVSECATYKLCHPEELVLLGHSLGIPWAPLSSCPSQALQLAGCLSQLHSGLFLYQGLLQALEGISPELGPTLDTLQLDVADFATTIWQQMEELGMAPALQPTQGAMPAFASAFQRRAGGVLVASHLQSFLEVSYRVLRHLAQP
neutrophil cycling [4]: increases the frequency and amplitude of neutrophil cycling, but does not eliminate it | time of peak neutrophilia after a single injection (Lewis rats; 25 ug/rat i.v.): 12 h | decrease in mature marrow neutrophils vs carrier control (Lewis rats; [5]): 44% | mature marrow neutrophils (Lewis rats; [5]): 5.55±0.5 ×10^6 PMN/humerus | myeloblasts and promyelocytes in marrow vs carrier controls (Lewis rats; 6 hours after single injection): significant increase in myeloblasts and promyelocytes | mature neutrophils in bone marrow (Lewis rats; 24 hours after daily injection for one week): 28.5±2.1 ×10^6 PMN/humerus | circulating neutrophils (Lewis rats; daily 25 ug/rat for one week, 24 hours after the last injection): 10.6±3.6 ×10^3 PMN/mm^3 | morbidity and thrombocytopenia (Lewis rats; daily for one week): None of the rats | circulating neutrophils (Lewis rats; daily for one week, 12 hours after the last (seventh) injection): 25.3±0.3 ×10^3 PMN/mm^3 | number of megakaryocytes in the spleen (Lewis rats; per 400× HPF, daily for one week): 2.0±1.1 | number of normoblasts in the spleen (Lewis rats; per 1,000× HPF, daily for one week): 0±0 | Colony #/100,000 cells (±SEM) (normal human bone marrow): 24 ± 1 | Colony #/10^5 cells (14 Days) (human bone marrow): 32 ± 3
